Data as given in paper PMC12209437, “Tailoring a novel colorectal cancer stem cell-targeted therapy by inhibiting the SMYD3/c-MYC axis” (Signal Transduction and Targeted Therapy, 2025).

B1: full-length HIS-tagged SMYD3 recombinant protein (enzyme, human, UniProt Q9H7B4 1-428, looked up)
chain: MEPLKVEKFATAKRGNGLRAVTPLRPGELLFRSDPLAYTVCKGSRGVVCDRCLLGKEKLMRCSQCRVAKYCSAKCQKKAWPDHKRECKCLKSCKPRYPPDSVRLLGRVVFKLMDGAPSESEKLYSFYDLESNINKLTEDKKEGLRQLVMTFQHFMREEIQDASQLPPAFDLFEAFAKVICNSFTICNAEMQEVGVGLYPSISLLNHSCDPNCSIVFNGPHLLLRAVRDIEVGEELTICYLDMLMTSEERRKQLRDQYCFECDCFRCQTQDKDADMLTGDEQVWKEVQESLKKIEELKAHWKWEQVLAMCQAIISSNSERLPDINIYQLKVLDCAMDACINLGLLEEALFYGTRTMEPYRIFFPGSHPVRGVQVMKVGKLQLHQGMFPQAMKNLRLAFDIMRVTHGREHSLIEDLILLLEECDANIRAS
notes: SMYD3 (lysine methyltransferase SET and MYND Domain Containing 3), full length, from the plasmid pET28-MHL-SMYD3 (Addgene 32048); no species is printed for the Addgene plasmid; also called HIS-SMYD3; HIS-SMYD3 fusion protein; source: E. coli BL21 (DE3), purified (Dynabeads HIS-Tag Isolation and Pulldown)

Legend:
Settings in all cases: both partners purified
[1] = target: T1, untagged human full-length c-MYC protein (human, UniProt P01106-2 1-454); experiment: pull-down; HIS-SMYD3 incubated with recombinant c-MYC or FLAG c-MYC fragments for 1 h at 4 °C, precipitated with Dynabeads HIS-Tag Isolation and Pulldown, washed in buffer A (20 mM Tris-HCl pH 8, 150 mM KCl, 5 mM MgCl2, 0.2 mM EDTA, 10% glycerol, 0.1% NP-40, 1 mM DTT), immunoblot
T1 construct: c-MYC, human, full length, untagged; also called c-MYC recombinant protein; untagged recombinant c-MYC protein; source: bought: Abcam ab169901, expressed in E. coli

[2] = target: B1; experiment: pull-down; competition assay: 500 ng HIS-SMYD3 and 200 ng untagged full-length c-MYC, 1 h at 4 °C, with escalating doses (0, 1, 5, 25, 125 µM) of P14, P14ext1 or P14ext2; precipitated on histidine beads, immunoblot with anti-c-MYC and anti-HIS
[3] = target: B1; experiment: pull-down; HIS-SMYD3 incubated with recombinant c-MYC or FLAG c-MYC fragments for 1 h at 4 °C, precipitated with Dynabeads HIS-Tag Isolation and Pulldown, washed in buffer A (20 mM Tris-HCl pH 8, 150 mM KCl, 5 mM MgCl2, 0.2 mM EDTA, 10% glycerol, 0.1% NP-40, 1 mM DTT), immunoblot

Binder | binding result [2] | also measured
B1 | – | binding result [1]: binds
PYFYCDEEENFYQQQQQSEL (numbers count on the 454-residue isoform; source: bought: custom purchased from Thermo Fisher Scientific) [P14 ext2 (P36YFYCDEEENFYQQQQQSEL55)] | binds | –
FLAG c-MYC M3 (aa 1-165) (domain or fragment, human, UniProt P01106-2 1-165, looked up, c-MYC, human, residues 1-165 of the 454-residue form; amplified from p3xFLAG CMV14 c-MYC-WT, itself made from pcDNA3-c-MYC (Addgene 16011); Vector p3xFLAG-CMV14 (Sigma E7908); also called p3xFLAG CMV14 c-MYC-M3) MDFFRVVENQQPPATMPLNVSFTNRNYDLDYDSVQPYFYCDEEENFYQQQQQSELQPPAPSEDIWKKFELLPTPPLSPSRRSGLCSPSYVAVTPFSLRGDNDGGGGSFSTADQLEMVTELLGGDMVNQSFICDPDDETFIKNIIIQDCMWSGFSAAAKLVSEKLA | – | binding result [3]: binds
EEENFYQQQ (numbers count on the 454-residue isoform; source: bought: custom purchased from Thermo Fisher Scientific) [P14 ext1 (E42EENFYQQQ50)] | binds | –
